Data as given in patent publication US20240002491A1, “METHODS FOR SELECTING PATIENTS FOR TREATMENT WITH AN NGF ANTAGONIST” (Regeneron Pharmaceuticals, Inc., priority 2022, published 2024).

Columns and labels:
[1] = test system: adults with moderate-to-severe chronic pain associated with osteoarthritis (OA) of the knee or hip; assay: Adjudicated arthropathies across the three fasinumab Phase 3 trials; assay type: in vivo, human; settings: across all three Phase 3 trials
Excerpt: (§1) NCT02683239 (R475-PN-1523, or “FACT LTS”), NCT03161093 (R475-OA-1611, or “FACT OA1”), and NCT03304379 (R475-OA-1688, or “FACT OA2”) each were Phase 3 trials evaluating fasinumab in adults with moderate-to-severe chronic pain associated with osteoarthritis (OA) of the knee or hip. All three of these trials enrolled patients with OA of the knee or hip who had inadequate pain relief with acetaminophen and were intolerant to or had inadequate pain relief with opioids, or were unwilling or unable to take opioids. Complete inclusion and exclusion criteria for the trials are described at clinicaltrials.gov/ct2/show/NCT03161093, clinicaltrials.gov/ct2/show/NCT03304379, and clinicaltrials.gov/ct2/show/NCT02683239.
The FACT LTS study evaluated the long-term safety and tolerability of fasinumab, including adverse events of special interest such as joint damage (e.g. arthropathies), compared with placebo. A total of 2,411 patients were randomized to one of the following treatment arms: (1) fasinumab 1 mg subcutaneous (SC) every 8 weeks (Q8W); (2) fasinumab 1 mg SC every 4 weeks (Q4W); or (3) matching placebo SC Q4W. This study also included a substudy evaluating the efficacy of fasinumab in these same patient groups (n=215 in fasinumab 1 mg Q8W, n=217 in fasinumab 1 mg Q4W, n=214 in placebo).

[2] = test system: adults with moderate-to-severe chronic pain associated with osteoarthritis (OA) of the knee or hip; assay: FACT OA2 (NCT03304379, R475-OA-1688) Phase 3 trial, WOMAC pain and physical function; assay type: in vivo, human
Excerpt: as §1
FACT OA1 and FACT OA2 assessed the efficacy of fasinumab in comparison to nonsteroidal anti-inflammatory drugs (NSAIDs; naproxen, diclofenac, or celecoxib) for treatment of OA. FACT OA1 includes results from a total of 1,801 patients randomized to one of four treatment arms: fasinumab 1 mg SC once every 8 weeks (Q8W) (n=304), fasinumab 1 mg SC once every 4 weeks (Q4W) (n=639), naproxen 500 mg twice daily (n=644), or placebo (n=214). In FACT OA2, patients were randomized into one of six treatment groups: fasinumab 1 mg SC once every 4 weeks (Q4W), fasinumab 3 mg SC once every 4 weeks (Q4W), fasinumab 6 mg SC once every 8 weeks (Q8W), celecoxib 200 mg once daily, diclofenac 75 mg twice daily, or placebo. While the FACT OA2 trial was still ongoing, enrollment into the fasinumab 3 mg Q4W and 6 mg Q8W groups was stopped for safety considerations; patients enrolled in those dose regimens discontinued study drug and entered the post-treatment follow-up period.
Fasinumab patients in both trials also reported improvements in their pain and physical function (WOMAC score) compared to those treated with the highest-approved prescription doses of NSAIDS.

[3] = test system: patients with OA of the knee and/or hip; assay: ISS rates of DA and AA above and below cut-offs for change in alkaline phosphatase at 16 weeks
Excerpt: To explore this possibility, three different cut-offs at 16 weeks were chosen (10, 15 and 20 U/L change from baseline) and the rate of DA above and below each cut-off was examined (FIG. 6). Of note, the standard deviation for change in alkaline phosphatase in the placebo arm is 12.9 at 8 weeks and 12.7 at 16 weeks.

[4] = test system: patients with OA of the knee and/or hip; assay: Integrated summary of safety (ISS): JR, AA, DA by number of large joints with OA at baseline; assay type: in vivo, human
Method: To improve risk-benefit for patients, analyses were conducted to identify populations of patients that might be at greater risk for joint-related adverse events. An integrated summary of safety (ISS) analysis was performed using pooled data from the clinical studies R475-PN-1612 (NCT03285646), R475-PN-1227 (NCT02447276), R475-PN-1523 (NCT02683239), R475-OA-1611 (NCT03161093), R475-OA-1688 (NCT03304379), R475-OA-1758 (NCT03691974), and MT-5547-J01 (NCT03245008).
As used in this Example, the term “adjudicated arthropathy” or “AA” is an umbrella term that encompasses the following conditions: rapidly progressive OA type 1 or 2, subchondral insufficiency fractures, and primary osteonecrosis. The term “destructive arthropathy” or “DA” refers to abnormal bone fragmentation, destruction, or fracture over a short period of time, which are observed by X-ray radiography and which are features inconsistent with radiographic findings typically observed in conventional advanced OA. The term “joint replacement” or “JR” refers to joint replacement surgery.
To examine different phenotypes of OA (generalized OA in particular) a subgroup analysis based on the number of large joints (knees, hips, shoulders) with OA at baseline was performed. OA joints were defined as any hip or knee with baseline KL 2 score or above and any shoulder with a score of mild, moderate or severe. Thus, the minimum number of joints with OA was 1 and the maximum number could be 6. Three subgroups were arbitrarily designated 1-2, 3-4, and 5-6 large joints with OA at baseline.
The analyses are based on large numbers of patients: 2103 patients in the placebo group, 1676 patients in the fasinumab 1 mg Q8W group (also referred to herein as “1Q8”), and 3009 patients in the 1 mg Q4W group (also referred to herein as “1Q4”). The percentage of the population in each subgroup was similar across treatment arms; the 1-2 joint subgroup ranged from 55.8 to 59.5% of the entire population, the range for the 3-4 joint subgroup was 33.6 to 37.4%, and the range for in the 5-6 joint subgroup was 6.7 to 7.1%.

[5] = FACT OA2, Week 24, fasinumab 1 mg Q4W, diclofenac 2 × 75 mg/day or celecoxib 200 mg/d
[6] = FACT OA2, Week 24, fasinumab 1 mg Q4W, nominal p < 0.0001
[7] = 1 mg Q4W (1Q4), 1-2 joint subgroup
[8] = 1 mg Q4W (1Q4), 5-6 joint subgroup
[9] = 1 mg Q8W (1Q8), 1-2 joint subgroup
[10] = 1 mg Q8W (1Q8), 5-6 joint subgroup

Fasinumab: fully-human high-affinity monoclonal antibody directed against NGF; HCVR/LCVR SEQ ID NOs: 2/10
rates of adjudicated arthropathies compared with placebo or NSAIDs [1]: higher rates of arthropathies were adjudicated in patients treated with fasinumab compared with placebo or NSAIDs, which were dose-dependent | WOMAC pain, change from baseline [2, 5]: −42% | WOMAC pain, change from baseline (score, in brackets) [2, 5]: (−2.79) | WOMAC physical function, change from baseline [2, 5]: −39% | WOMAC physical function, change from baseline (score, in brackets) [2, 5]: (−2.63) | WOMAC pain, difference vs. placebo [2, 6]: −0.79 | WOMAC physical function, difference vs. placebo [2, 6]: −0.82 | WOMAC physical function, difference vs. diclofenac/celecoxib ([2]; FACT OA2, Week 24, fasinumab 1 mg/month, nominal p = 0.0152): −0.36 | WOMAC pain, difference vs. diclofenac/celecoxib ([2]; FACT OA2, Week 24, fasinumab 1 mg/month, nominal p = 0.0503): −0.30 | co-primary endpoints: pain and physical function compared to placebo ([2]; FACT OA2, fasinumab 1 mg Q4W, p<0.01 for all endpoints): significantly reduced pain and improved physical function compared to placebo | odds ratios of DA, change in alkaline phosphatase above vs below cut-off ([3]; cut-offs 10, 15, 20 U/L at 16 weeks, 1Q4 and 1Q8): 6 to 25 | odds ratios of AA, change in alkaline phosphatase above vs below cut-off ([3]; cut-offs at 16 weeks, all 95% confidence intervals excluding 1): 1.5 to 2.5 | median time for detection of DA ([4]; 1 mg Q4W): 343.5 days | difference in all AA from placebo ([4]; 1 mg Q4W (1Q4)): 5.7% | JR rate, difference from placebo [4, 7]: 1.3% | RPOA-1 rate [4, 7]: 5.8% | RPOA-1 rate, difference versus placebo [4, 7]: 4.1% | percentage of patients who developed adjudicated arthropathy (AA) [4, 7]: 7.7% | percentage of patients who underwent joint replacement (JR) [4, 7]: 6.4% | percentage of patients with destructive arthropathy (DA) [4, 7]: 0.3% | percentage of patients who developed adjudicated arthropathy (AA) [4, 8]: 12.2% | percentage of patients who underwent joint replacement (JR) [4, 8]: 14.6% | percentage of patients with destructive arthropathy (DA) [4, 8]: 1.5% | median time for detection of DA ([4]; 1 mg Q8W): 284 days | difference in all AA from placebo ([4]; 1 mg Q8W (1Q8)): 3.7% | JR rate, difference from placebo [4, 9]: 0.8% | RPOA-1 rate [4, 9]: 4.8% | RPOA-1 rate, difference versus placebo [4, 9]: 3.1% | percentage of patients who developed adjudicated arthropathy (AA) [4, 9]: 5.7% | percentage of patients who underwent joint replacement (JR) [4, 9]: 5.9% | percentage of patients with destructive arthropathy (DA) [4, 9]: 0.2% | percentage of patients who developed adjudicated arthropathy (AA) [4, 10]: 10.7% | percentage of patients who underwent joint replacement (JR) [4, 10]: 12.5% | percentage of patients with destructive arthropathy (DA) [4, 10]: 0.9% | median time for detection of DA ([4]; pooled high dose (3 mg Q4W, 6 mg Q4W, 9 mg Q8W, 9 mg Q4W)): 364.5 days
